Data from the supplement of paper PMC10065799, “High-throughput profiling of sequence recognition by tyrosine kinases and SH2 domains using bacterial peptide display” (eLife, 2023).

The sequences below were run on c-Src (assay: phosphorylation enrichment, bacterial display (enrichment ratio); higher = better substrate or ligand; peptides without Tyr show the background).
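Further: 11-residue human phosphosite peptides and single-mutation variants displayed on the E. coli surface, counted by deep sequencing, each peptide's frequency after selection divided by its frequency in the unselected input library; frequency after pTyr selection over input frequency; kinase dosed for 20-30% of maximal phosphorylation in three min.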

Sequence | phosphorylation enrichment
VEDHFYEGGIG [TKT_Y564_YF] | 0.594
SVNIRYLLFPS [SERAC1_Y548] | 0.463
KLADVYQAELR [GFAP_Y116] | 0.634
ATDLAYYLVCK [ASL_Y375_R379C] | 1.06
NTVLGYFIGCI [GARS1_Y408_R412C] | 0.465
FTHSDYQFGQR [PKP2_Y166_S169G_YF] | 0.457
NGPDVYVLPVT [AATK_Y93_L97V] | 1.2
EFLKNYFTDKA [DSG2_Y775_R773K] | 0.632
VHKEGYNKLNQ [ZNF676_Y98] | 0.463
VDSNPYSRLVA [UBA5_Y53_M57V] | 1.02
VDSAHYKLLET [DTX3L_Y385] | 0.401
SEDANYMRVSC [TTC3_Y1288_K1289M] | 0.468
KVITDYFVDMK [MPP4_Y566_YF] | 0.435
AKQVGCENAGT [PC_Y304_Y304C] | 0.428
TFAVSYLPDMS [FLNC_Y1602_T1599A_YF] | 0.378
SSAETYSRMRL [NBEAL2_Y1835] | 0.471
AVAFLYFKSIG [ADGRL4_Y301_V300L_YF] | 0.441

Sequence | phosphorylation enrichment
TLQSMSGCDVG [HLA-B_Y123_Y123S] | 0.406
SVTCTYSPAPN [TP53_Y126_L130P] | 0.509
FSGIFYKPESL [L2HGDH_Y103_H98Y_YF] | 0.611
GPKSTYISSAG [GOLGA5_Y62_A67G] | 0.365
QGLRLYRSHLA [BTK_Y617_P619S] | 0.51
VISNAYVDLSP [HSD17B4_Y602_A606S] | 0.525
YLGEEYVKAVG [TF_Y674] | 0.444
QKLPSYILENN [VPS13B_Y2774] | 0.499
VFDMLYQLANL [USP24_Y1087] | 5.01
VNKIYHPDFIV [LIG3_Y768_Y768H] | 0.484
FADIAYNFRHR [PAH_Y166_G171R_YF] | 0.415
KVALVYGQMNE [ATP5F1B_Y269] | 1.97
FARNCYVAGQF [G6PD_Y107_S106C_YF] | 0.507
IFGVSYDEFRF [CFTR_Y512_YF] | 2.32
HLLRIYFDITD [MMP27_Y307_W304L_YF] | 0.791
STTSDYQWDFS [MTDH_Y364_V368F] | 0.58

What follows are sequences tested against Jak2 (UniProt O60674) in the same assay as above.
Sequence of Jak2 (O60674 whole entry, looked up): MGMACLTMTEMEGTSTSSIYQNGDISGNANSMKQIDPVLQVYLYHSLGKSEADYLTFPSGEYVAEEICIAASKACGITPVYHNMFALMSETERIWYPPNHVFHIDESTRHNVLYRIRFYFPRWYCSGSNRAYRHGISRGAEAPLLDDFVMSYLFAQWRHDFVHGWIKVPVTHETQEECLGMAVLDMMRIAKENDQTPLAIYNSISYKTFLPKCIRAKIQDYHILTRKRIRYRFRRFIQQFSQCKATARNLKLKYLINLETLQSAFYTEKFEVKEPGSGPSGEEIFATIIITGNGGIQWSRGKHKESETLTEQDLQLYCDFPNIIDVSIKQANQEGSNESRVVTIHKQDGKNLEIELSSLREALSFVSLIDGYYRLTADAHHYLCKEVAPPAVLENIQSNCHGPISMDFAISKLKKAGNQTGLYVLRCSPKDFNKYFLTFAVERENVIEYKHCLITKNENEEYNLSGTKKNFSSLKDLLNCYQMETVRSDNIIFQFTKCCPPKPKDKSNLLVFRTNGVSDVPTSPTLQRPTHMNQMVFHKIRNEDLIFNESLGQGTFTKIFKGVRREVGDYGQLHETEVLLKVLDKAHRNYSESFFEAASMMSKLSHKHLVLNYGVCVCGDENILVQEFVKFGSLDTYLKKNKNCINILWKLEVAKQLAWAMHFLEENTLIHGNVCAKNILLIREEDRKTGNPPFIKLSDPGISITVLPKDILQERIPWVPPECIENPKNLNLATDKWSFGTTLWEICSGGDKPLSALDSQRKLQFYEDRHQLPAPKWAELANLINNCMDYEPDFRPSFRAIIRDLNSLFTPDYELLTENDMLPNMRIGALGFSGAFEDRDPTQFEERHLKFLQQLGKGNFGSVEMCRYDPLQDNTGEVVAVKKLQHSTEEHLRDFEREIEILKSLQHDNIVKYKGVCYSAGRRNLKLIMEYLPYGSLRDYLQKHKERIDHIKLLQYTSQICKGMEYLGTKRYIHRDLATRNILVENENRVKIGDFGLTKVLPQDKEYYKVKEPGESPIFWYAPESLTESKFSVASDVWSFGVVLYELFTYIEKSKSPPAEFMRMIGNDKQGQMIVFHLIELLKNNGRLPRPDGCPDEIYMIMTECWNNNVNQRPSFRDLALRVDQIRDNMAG

Sequence | phosphorylation enrichment
VEDHFYEGGIG [TKT_Y564_YF] | 1.13
SVNIRYLLFPS [SERAC1_Y548] | 1.25
KLADVYQAELR [GFAP_Y116] | 0.549
ATDLAYYLVCK [ASL_Y375_R379C] | 2.82
NTVLGYFIGCI [GARS1_Y408_R412C] | 1.18
FTHSDYQFGQR [PKP2_Y166_S169G_YF] | 0.583
NGPDVYVLPVT [AATK_Y93_L97V] | 0.837
EFLKNYFTDKA [DSG2_Y775_R773K] | 0.808
VHKEGYNKLNQ [ZNF676_Y98] | 0.668
VDSNPYSRLVA [UBA5_Y53_M57V] | 0.611
VDSAHYKLLET [DTX3L_Y385] | 0.517
SEDANYMRVSC [TTC3_Y1288_K1289M] | 0.743
KVITDYFVDMK [MPP4_Y566_YF] | 0.858
AKQVGCENAGT [PC_Y304_Y304C] | 0.706
TFAVSYLPDMS [FLNC_Y1602_T1599A_YF] | 0.741
SSAETYSRMRL [NBEAL2_Y1835] | 0.501
AVAFLYFKSIG [ADGRL4_Y301_V300L_YF] | 1.33

Sequence | phosphorylation enrichment
TLQSMSGCDVG [HLA-B_Y123_Y123S] | 1.38
SVTCTYSPAPN [TP53_Y126_L130P] | 0.999
FSGIFYKPESL [L2HGDH_Y103_H98Y_YF] | 0.935
GPKSTYISSAG [GOLGA5_Y62_A67G] | 0.411
QGLRLYRSHLA [BTK_Y617_P619S] | 0.75
VISNAYVDLSP [HSD17B4_Y602_A606S] | 0.829
YLGEEYVKAVG [TF_Y674] | 0.698
QKLPSYILENN [VPS13B_Y2774] | 1.49
VFDMLYQLANL [USP24_Y1087] | 0.874
VNKIYHPDFIV [LIG3_Y768_Y768H] | 0.796
FADIAYNFRHR [PAH_Y166_G171R_YF] | 0.487
KVALVYGQMNE [ATP5F1B_Y269] | 0.769
FARNCYVAGQF [G6PD_Y107_S106C_YF] | 0.743
IFGVSYDEFRF [CFTR_Y512_YF] | 1.09
HLLRIYFDITD [MMP27_Y307_W304L_YF] | 2.05
STTSDYQWDFS [MTDH_Y364_V368F] | 1.14

Each sequence was assayed on c-Abl (mouse) in the same assay as above.

Sequence | phosphorylation enrichment
VEDHFYEGGIG [TKT_Y564_YF] | 0.893
SVNIRYLLFPS [SERAC1_Y548] | 0.817
KLADVYQAELR [GFAP_Y116] | 0.549
ATDLAYYLVCK [ASL_Y375_R379C] | 1.04
NTVLGYFIGCI [GARS1_Y408_R412C] | 0.826
FTHSDYQFGQR [PKP2_Y166_S169G_YF] | 0.553
NGPDVYVLPVT [AATK_Y93_L97V] | 0.787
EFLKNYFTDKA [DSG2_Y775_R773K] | 0.573
VHKEGYNKLNQ [ZNF676_Y98] | 0.752
VDSNPYSRLVA [UBA5_Y53_M57V] | 0.648
VDSAHYKLLET [DTX3L_Y385] | 0.466
SEDANYMRVSC [TTC3_Y1288_K1289M] | 0.7
KVITDYFVDMK [MPP4_Y566_YF] | 0.673
AKQVGCENAGT [PC_Y304_Y304C] | 0.638
TFAVSYLPDMS [FLNC_Y1602_T1599A_YF] | 0.61
SSAETYSRMRL [NBEAL2_Y1835] | 0.509
AVAFLYFKSIG [ADGRL4_Y301_V300L_YF] | 0.851

Sequence | phosphorylation enrichment
TLQSMSGCDVG [HLA-B_Y123_Y123S] | 0.536
SVTCTYSPAPN [TP53_Y126_L130P] | 0.776
FSGIFYKPESL [L2HGDH_Y103_H98Y_YF] | 0.81
GPKSTYISSAG [GOLGA5_Y62_A67G] | 0.464
QGLRLYRSHLA [BTK_Y617_P619S] | 0.801
VISNAYVDLSP [HSD17B4_Y602_A606S] | 0.711
YLGEEYVKAVG [TF_Y674] | 0.645
QKLPSYILENN [VPS13B_Y2774] | 1.11
VFDMLYQLANL [USP24_Y1087] | 0.945
VNKIYHPDFIV [LIG3_Y768_Y768H] | 0.562
FADIAYNFRHR [PAH_Y166_G171R_YF] | 0.537
KVALVYGQMNE [ATP5F1B_Y269] | 0.65
FARNCYVAGQF [G6PD_Y107_S106C_YF] | 0.714
IFGVSYDEFRF [CFTR_Y512_YF] | 0.678
HLLRIYFDITD [MMP27_Y307_W304L_YF] | 1.87
STTSDYQWDFS [MTDH_Y364_V368F] | 0.736

What follows are sequences tested against FGFR3 (UniProt P22607) in the same assay as above.
Sequence of FGFR3 (P22607 whole entry, looked up): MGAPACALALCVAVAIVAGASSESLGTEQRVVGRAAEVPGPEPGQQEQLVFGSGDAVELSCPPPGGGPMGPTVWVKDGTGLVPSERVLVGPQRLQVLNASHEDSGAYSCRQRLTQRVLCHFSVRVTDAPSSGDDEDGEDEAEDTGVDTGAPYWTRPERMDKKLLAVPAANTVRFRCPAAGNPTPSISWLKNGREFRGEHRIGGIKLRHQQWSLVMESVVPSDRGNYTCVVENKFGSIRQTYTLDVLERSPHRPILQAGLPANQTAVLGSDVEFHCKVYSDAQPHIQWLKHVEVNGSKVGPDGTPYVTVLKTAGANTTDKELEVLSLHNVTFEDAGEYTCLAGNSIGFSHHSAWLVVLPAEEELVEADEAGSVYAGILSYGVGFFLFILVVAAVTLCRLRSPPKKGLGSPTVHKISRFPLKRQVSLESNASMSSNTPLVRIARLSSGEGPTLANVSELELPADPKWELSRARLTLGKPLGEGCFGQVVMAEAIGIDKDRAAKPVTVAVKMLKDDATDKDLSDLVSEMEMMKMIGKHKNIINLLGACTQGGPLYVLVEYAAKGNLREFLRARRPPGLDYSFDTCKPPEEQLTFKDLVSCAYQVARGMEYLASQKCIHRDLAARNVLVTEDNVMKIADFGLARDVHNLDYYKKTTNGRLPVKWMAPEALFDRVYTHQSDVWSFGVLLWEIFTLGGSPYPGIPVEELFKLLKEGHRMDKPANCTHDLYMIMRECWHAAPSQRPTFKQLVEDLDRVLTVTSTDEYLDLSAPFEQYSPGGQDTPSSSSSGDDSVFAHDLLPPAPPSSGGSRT

Sequence | phosphorylation enrichment
VEDHFYEGGIG [TKT_Y564_YF] | 0.875
SVNIRYLLFPS [SERAC1_Y548] | 0.929
KLADVYQAELR [GFAP_Y116] | 0.667
ATDLAYYLVCK [ASL_Y375_R379C] | 3.06
NTVLGYFIGCI [GARS1_Y408_R412C] | 0.828
FTHSDYQFGQR [PKP2_Y166_S169G_YF] | 0.474
NGPDVYVLPVT [AATK_Y93_L97V] | 0.751
EFLKNYFTDKA [DSG2_Y775_R773K] | 0.493
VHKEGYNKLNQ [ZNF676_Y98] | 0.511
VDSNPYSRLVA [UBA5_Y53_M57V] | 0.559
VDSAHYKLLET [DTX3L_Y385] | 0.657
SEDANYMRVSC [TTC3_Y1288_K1289M] | 0.742
KVITDYFVDMK [MPP4_Y566_YF] | 0.795
AKQVGCENAGT [PC_Y304_Y304C] | 0.484
TFAVSYLPDMS [FLNC_Y1602_T1599A_YF] | 0.816
SSAETYSRMRL [NBEAL2_Y1835] | 0.44
AVAFLYFKSIG [ADGRL4_Y301_V300L_YF] | 0.837

Sequence | phosphorylation enrichment
TLQSMSGCDVG [HLA-B_Y123_Y123S] | 0.932
SVTCTYSPAPN [TP53_Y126_L130P] | 0.83
FSGIFYKPESL [L2HGDH_Y103_H98Y_YF] | 0.673
GPKSTYISSAG [GOLGA5_Y62_A67G] | 0.374
QGLRLYRSHLA [BTK_Y617_P619S] | 0.5
VISNAYVDLSP [HSD17B4_Y602_A606S] | 0.62
YLGEEYVKAVG [TF_Y674] | 0.523
QKLPSYILENN [VPS13B_Y2774] | 0.938
VFDMLYQLANL [USP24_Y1087] | 0.82
VNKIYHPDFIV [LIG3_Y768_Y768H] | 0.589
FADIAYNFRHR [PAH_Y166_G171R_YF] | 0.44
KVALVYGQMNE [ATP5F1B_Y269] | 0.606
FARNCYVAGQF [G6PD_Y107_S106C_YF] | 0.553
IFGVSYDEFRF [CFTR_Y512_YF] | 0.609
HLLRIYFDITD [MMP27_Y307_W304L_YF] | 1.68
STTSDYQWDFS [MTDH_Y364_V368F] | 1.27
